Source: publication PMC3245936 (Nucleic Acids Research, 2011)

Key:
SpPot1;Tpz1-1-234 = target: T1, SpPot1;Tpz1-1-234 (Schizosaccharomyces …, UniProt O13988;O14246 1-555;1-234, |); experiment: filter binding
T1 sequence 1: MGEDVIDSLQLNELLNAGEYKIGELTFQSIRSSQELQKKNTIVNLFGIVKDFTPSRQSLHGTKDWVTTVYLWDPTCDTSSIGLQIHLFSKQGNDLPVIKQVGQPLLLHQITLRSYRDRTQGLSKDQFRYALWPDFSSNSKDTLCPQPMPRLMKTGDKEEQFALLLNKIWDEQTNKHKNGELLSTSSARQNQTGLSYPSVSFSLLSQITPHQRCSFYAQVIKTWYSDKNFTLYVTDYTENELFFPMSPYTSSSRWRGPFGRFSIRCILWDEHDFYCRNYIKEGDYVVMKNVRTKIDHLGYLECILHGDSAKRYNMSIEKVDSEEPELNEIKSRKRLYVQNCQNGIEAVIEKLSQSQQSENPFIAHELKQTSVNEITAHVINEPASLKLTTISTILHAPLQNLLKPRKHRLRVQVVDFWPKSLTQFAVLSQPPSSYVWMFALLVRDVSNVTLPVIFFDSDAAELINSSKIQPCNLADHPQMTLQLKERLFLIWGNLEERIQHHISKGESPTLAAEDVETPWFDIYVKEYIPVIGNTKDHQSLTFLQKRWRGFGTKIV
T1 sequence 2: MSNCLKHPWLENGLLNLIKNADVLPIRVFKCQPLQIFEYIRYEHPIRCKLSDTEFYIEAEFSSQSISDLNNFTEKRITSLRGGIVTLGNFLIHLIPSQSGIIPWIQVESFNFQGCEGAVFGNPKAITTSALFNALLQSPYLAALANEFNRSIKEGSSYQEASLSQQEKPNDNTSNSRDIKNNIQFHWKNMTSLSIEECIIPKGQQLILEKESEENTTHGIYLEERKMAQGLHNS

SpPot1 [1] = target: T2, SpPot1 (Schizosaccharomyces pombe, UniProt O13988 1-555); experiment: filter binding
T2 sequence: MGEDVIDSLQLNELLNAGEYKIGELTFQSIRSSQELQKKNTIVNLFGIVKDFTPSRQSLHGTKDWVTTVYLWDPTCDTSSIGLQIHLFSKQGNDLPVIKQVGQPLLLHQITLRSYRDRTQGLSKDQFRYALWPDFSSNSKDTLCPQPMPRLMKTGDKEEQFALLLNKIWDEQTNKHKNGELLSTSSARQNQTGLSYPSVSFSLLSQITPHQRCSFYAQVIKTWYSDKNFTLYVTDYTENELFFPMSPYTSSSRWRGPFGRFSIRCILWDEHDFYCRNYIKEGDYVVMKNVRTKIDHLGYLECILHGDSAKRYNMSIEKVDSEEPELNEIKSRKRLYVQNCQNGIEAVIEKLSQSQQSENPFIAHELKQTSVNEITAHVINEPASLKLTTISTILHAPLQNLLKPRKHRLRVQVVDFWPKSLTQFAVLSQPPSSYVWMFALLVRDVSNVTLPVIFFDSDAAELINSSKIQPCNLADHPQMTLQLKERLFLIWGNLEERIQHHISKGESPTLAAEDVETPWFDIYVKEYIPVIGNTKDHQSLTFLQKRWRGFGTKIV

SpPot1 [2] = target: T2, SpPot1; experiment: size-exclusion chromatography
[3] = target: T3, full-length SpPot1 (Schizosaccharomyces pombe Pot1) (S. pombe, UniProt O13988 1-555); experiment: native gel or EMSA
T3 sequence (looked up): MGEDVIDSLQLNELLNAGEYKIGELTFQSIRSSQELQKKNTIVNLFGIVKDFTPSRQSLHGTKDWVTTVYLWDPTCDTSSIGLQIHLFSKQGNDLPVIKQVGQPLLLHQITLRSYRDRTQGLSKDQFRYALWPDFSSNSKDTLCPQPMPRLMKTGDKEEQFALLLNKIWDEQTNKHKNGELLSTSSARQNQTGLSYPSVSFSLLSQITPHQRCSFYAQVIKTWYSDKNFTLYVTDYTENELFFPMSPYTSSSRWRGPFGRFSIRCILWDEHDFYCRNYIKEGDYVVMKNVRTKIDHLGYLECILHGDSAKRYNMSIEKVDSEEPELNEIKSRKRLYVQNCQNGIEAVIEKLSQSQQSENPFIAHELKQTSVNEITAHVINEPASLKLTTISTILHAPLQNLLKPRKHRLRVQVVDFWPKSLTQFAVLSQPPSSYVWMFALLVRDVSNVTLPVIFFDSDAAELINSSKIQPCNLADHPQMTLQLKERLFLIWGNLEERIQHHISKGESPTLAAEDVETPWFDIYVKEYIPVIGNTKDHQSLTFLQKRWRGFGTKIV

B1: r2r8 (mixed)
DNA: GGTTACGGTTAC
modifications: ribonucleotides at 2 and 8
Kd (SpPot1;Tpz1-1-234): 0.19 ± 0.03 nM | Kd (SpPot1 [1]): 3.2 ± 0.5 nM

B2: d12rA (mixed)
DNA: GGTTACAGGTTAC
modifications: ribonucleotide (rA) at 7
Kd (SpPot1 [1]): 3.4 ± 0.3 nM

B3: d12rArGrG (mixed)
DNA: GGTTACAGGGGTTAC
modifications: ribonucleotides (rArGrG) at 7-9
Kd (SpPot1 [1]): 4 ± 0.5 nM

B4: GGTTAC (ssDNA)
DNA: GGTTAC
binding result (SpPot1 [2]): binds

B5: d12 (ssDNA)
DNA: GGTTACGGTTAC
Kd (SpPot1;Tpz1-1-234): 0.22 ± 0.03 nM | Kd (SpPot1 [1]): 5 ± 1.3 nM

B6: r1r7 (mixed)
DNA: GGTTACGGTTAC
modifications: ribonucleotides at 1 and 7
Kd (SpPot1;Tpz1-1-234): 0.31 ± 0.02 nM | Kd (SpPot1 [1]): 5.1 ± 0.01 nM

B7: r3r4r9r10 (mixed)
RNA: GGUUACGGUUAC
modifications: ribonucleotides (rU) at 3, 4, 9 and 10
Kd (SpPot1 [1]): ~238 nM

B8: Tpz1-1–234 (domain or fragment, S. pombe, UniProt O14246 1-234, looked up)
chain: MSNCLKHPWLENGLLNLIKNADVLPIRVFKCQPLQIFEYIRYEHPIRCKLSDTEFYIEAEFSSQSISDLNNFTEKRITSLRGGIVTLGNFLIHLIPSQSGIIPWIQVESFNFQGCEGAVFGNPKAITTSALFNALLQSPYLAALANEFNRSIKEGSSYQEASLSQQEKPNDNTSNSRDIKNNIQFHWKNMTSLSIEECIIPKGQQLILEKESEENTTHGIYLEERKMAQGLHNS
binding result [3]: binds

B9: d12dAdGdG (ssDNA)
DNA: GGTTACAGGGGTTAC
Kd (SpPot1 [1]): 4.9 ± 0.7 nM

B10: d12dA (ssDNA)
DNA: GGTTACAGGTTAC
Kd (SpPot1 [1]): 4.3 ± 0.6 nM

B11: r6r12 (mixed)
DNA: GGTTACGGTTAC
modifications: ribonucleotides at 6 and 12
Kd (SpPot1;Tpz1-1-234): 0.3 ± 0.05 nM | Kd (SpPot1 [1]): 3.2 ± 0.6 nM

B12: r5r11 (mixed)
DNA: GGTTACGGTTAC
modifications: ribonucleotides at 5 and 11
Kd (SpPot1;Tpz1-1-234): 0.31 ± 0.05 nM | Kd (SpPot1 [1]): 3.34 ± 0.4 nM

B13: r12 (ssRNA)
RNA: GGUUACGGUUAC
Kd (SpPot1;Tpz1-1-234): ~1000 nM | Kd (SpPot1 [1]): ~324 nM
